Reference: patent US20200024330A1

Tests used:
Assay in all cases: cell-based or functional assay
[1] = target: HIV-1 MGRM-A-010 envelope glycoprotein (Env) (HIV-1)
[2] = target: HIV-1 Env of isolate 93UG077 (HIV-1)
[3] = target: HIV-1 MGRM-F1-006 Env (pseudovirus) (HIV-1)
[4] = target: HIV-1 Env of isolate MGRM-D-005 (clade D) (HIV-1)
[5] = target: HIV-1 MGRM-C-004 Env (HIV-1)
[6] = target: HIV-1 92UG024 envelope protein (Env) on pseudovirus (HIV-1)
[7] = target: HIV-1 MGRM-A-011 envelope glycoprotein (Env) (HIV-1)
[8] = target: HIV-1 Env of isolate MGRM-G-014 (clade G pseudovirus) (HIV-1)
[9] = target: HIV-1 MGRM-C-019 Env (HIV-1)
[10] = target: HIV-1 Env of isolate MGRM-D-014 (clade D) (HIV-1)
[11] = target: aMLV envelope protein on pseudovirus
[12] = target: HIV-1 MGRM-C-017 Env (HIV-1)
[13] = target: HIV-1 MGRM-C-025 Env (HIV-1)
[14] = target: HIV-1 Env of isolate 92UG024 (clade D) (HIV-1)
[15] = target: HIV-1 92RW008 envelope glycoprotein (Env) (HIV-1)
[16] = target: HIV-1 Env of pseudovirus APV_17, clade B (HIV-1)
[17] = target: HIV-1 92RW021 envelope glycoprotein (Env) on pseudovirus (HIV-1)
[18] = target: HIV-1 MGRM-A-004 envelope glycoprotein (Env) (HIV-1)
[19] = target: HIV-1 Env of pseudovirus NL43, clade B (HIV-1)
[20] = target: HIV-1 Env of isolate MGRM-C-022 (pseudovirus) (HIV-1 isolate MGRM-C-022, subtype C)
[21] = target: HIV-1 JRCSF Env (pseudovirus) (HIV-1) (UniProt P20871)
[22] = target: HIV-1 Env of isolate MGRM-C-014 (pseudovirus) (HIV-1 isolate MGRM-C-014, subtype C)
[23] = target: HIV-1 Env of isolate MG RM-AG-002 (HIV-1)
[24] = target: HIV-1 Env of isolate MG RM-AG-012 (HIV-1)
[25] = target: HIV-1 Env of isolate MGRM-C-010 (pseudovirus) (HIV-1 isolate MGRM-C-010, subtype C)
[26] = target: HIV-1 Env of isolate MGRM-C-017 (pseudovirus) (HIV-1 isolate MGRM-C-017, subtype C)
[27] = target: HIV-1 APV_13 Env (pseudovirus) (HIV-1)
[28] = target: HIV-1 Env of isolate MGRM-G-014 (subtype G) (HIV-1)
[29] = target: HIV-1 Env of isolate MGRM-G-028 (subtype G) (HIV-1)
[30] = target: HIV-1 MGRM-D-018 envelope glycoprotein (Env) on pseudovirus (HIV-1)

Chain of PGT-141 (4964_G22; 4993_K13) (antibody) (VH): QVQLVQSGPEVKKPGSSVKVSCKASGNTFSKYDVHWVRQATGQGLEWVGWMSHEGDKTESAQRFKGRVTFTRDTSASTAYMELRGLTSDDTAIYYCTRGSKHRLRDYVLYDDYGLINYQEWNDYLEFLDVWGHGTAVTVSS
Chain of PGT-141 (4964_G22; 4993_K13) (antibody) (VL): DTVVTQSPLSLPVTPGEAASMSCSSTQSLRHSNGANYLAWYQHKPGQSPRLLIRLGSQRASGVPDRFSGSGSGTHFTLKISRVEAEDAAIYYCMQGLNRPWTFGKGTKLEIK
Chain of PGT-142 (4995_E20) (antibody) (VH): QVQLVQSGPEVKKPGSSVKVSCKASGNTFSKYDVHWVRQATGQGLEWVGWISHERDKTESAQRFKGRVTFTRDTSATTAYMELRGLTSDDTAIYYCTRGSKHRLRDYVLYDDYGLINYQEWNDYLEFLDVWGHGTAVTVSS
Chain of PGT-142 (4995_E20) (antibody) (VL): as the sequence (VL) above

For PGT-121 (antibody), the IC50 neutralization [1] was 2.61 µg/mL and the IC50 (µg/mL), pseudovirus neutralization [2] was 0.019 µg/mL.

With 2F5 (antibody) the IC50 (µg/ml), pseudovirus neutralization [3] was 1.1 µg/mL, the IC50 (µg/ml), pseudovirus neutralization [4] was over 50 µg/mL and the IC50 (µg/ml), pseudovirus neutralization [1] was 20.8 µg/mL. It also gave an IC50 [5] of over 50 µg/mL, a neutralization IC50 [6] of 1.27 µg/mL and an IC50 (µg/ml), pseudovirus neutralization [7] of over 50 µg/mL. The IC50 (µg/ml), pseudovirus neutralization [8] was 9.65 µg/mL, the IC50 [9] was over 50 µg/mL and the IC50 (µg/ml), pseudovirus neutralization [10] was 2.22 µg/mL. It also gave a neutralization IC50 [11] of over 50 µg/mL, an IC50 [12] of over 50 µg/mL and an IC50 [13] of over 50 µg/mL. The IC50 (µg/ml), pseudovirus neutralization [14] was 0.95 µg/mL, the IC50 (µg/ml), pseudovirus neutralization [15] was 10.4 µg/mL and the IC50 (µg/ml), pseudovirus neutralization [16] was 4.61 µg/mL. It also gave an IC50 (µg/ml), pseudovirus neutralization [17] of 4.16 µg/mL, an IC50 (µg/ml), pseudovirus neutralization [18] of 7.49 µg/mL and an IC50 (µg/ml), pseudovirus neutralization [19] of 2.02 µg/mL.

With 4838_L06 (PGT-121) (antibody) the IC50 (µg/mL) neutralization [20] was 0.015 µg/mL, the IC50, pseudovirus neutralization [21] was 0.027 µg/mL and the neutralization IC90 [21] was 0.223 µg/mL. It also gave a neutralization IC95 [21] of 0.417 µg/mL, an IC50 (µg/mL) neutralization [22] of 26.9 µg/mL and a neutralization IC50 [23] of over 50 µg/mL. For the same substance, the neutralization IC50 [24] was over 50 µg/mL, the IC50 (µg/mL) neutralization [25] was over 50 µg/mL and the IC50 (µg/mL) neutralization [26] was 0.009 µg/mL. It also gave an IC50, pseudovirus neutralization [27] of 0.251 µg/mL.

PGT-122 (antibody) gave an IC50 neutralization [1] of 1.68 µg/mL and an IC50 (µg/mL), pseudovirus neutralization [2] of 0.084 µg/mL.

1495_C14 (PGC14) (antibody) showed an IC50 (µg/ml), pseudovirus neutralization [3] of over 50 µg/mL, an IC50 (µg/ml), pseudovirus neutralization [4] of over 50 µg/mL and an IC50 (µg/ml), pseudovirus neutralization [1] of over 50 µg/mL. For the same substance, the IC50 [5] was over 50 µg/mL, the neutralization IC50 [6] was over 50 µg/mL and the IC50 (µg/ml), pseudovirus neutralization [7] was over 50 µg/mL. It also gave an IC50 (µg/ml), pseudovirus neutralization [8] of over 50 µg/mL, an IC50 [9] of 12 µg/mL and an IC50 (µg/ml), pseudovirus neutralization [10] of 48 µg/mL. The neutralization IC50 [11] was over 50 µg/mL, the IC50 [12] was over 50 µg/mL and the IC50 [13] was over 50 µg/mL. For the same substance, the IC50 (µg/ml), pseudovirus neutralization [14] was over 50 µg/mL, the IC50 (µg/ml), pseudovirus neutralization [15] was 37 µg/mL and the IC50 (µg/ml), pseudovirus neutralization [16] was over 50 µg/mL. It also gave an IC50 (µg/ml), pseudovirus neutralization [17] of over 50 µg/mL, an IC50 (µg/ml), pseudovirus neutralization [18] of over 50 µg/mL and an IC50 (µg/ml), pseudovirus neutralization [19] of 40 µg/mL.

With PGT-142 (4995_E20) (antibody) the neutralization IC50 [28] was 0.076 µg/mL and the neutralization IC50 [29] was 30.3 µg/mL.

5141_B17 (PGT-126) (antibody) gave an IC50 (µg/mL) neutralization [20] of 0.96 µg/mL, an IC50 [21] of 0.0061 µg/mL and an IC50, pseudovirus neutralization [21] of 0.008 µg/mL. The IC80 [21] was 0.018 µg/mL, the IC90 [21] was 0.0339 µg/mL and the IC95 [21] was 0.0608 µg/mL. The IC50 (µg/mL) neutralization [22] was over 50 µg/mL, the neutralization IC50 [23] was over 50 µg/mL and the neutralization IC50 [24] was over 50 µg/mL. For the same substance, the IC50 (µg/mL) neutralization [25] was over 50 µg/mL, the IC50 (µg/mL) neutralization [26] was 0.17 µg/mL and the IC50, pseudovirus neutralization [27] was 0.012 µg/mL. It also gave an IC50 (ug/ml), neutralizing activity [30] of 0.0093 µg/mL.

In the case of PGT-141 (4964_G22; 4993_K13) (antibody), the neutralization IC50 [28] is reported as 0.222 µg/mL and the neutralization IC50 [29] is reported as 24.9 µg/mL.

4877_D15 (PGT-122) (antibody) gave an IC50 (µg/mL) neutralization [20] of 0.012 µg/mL, an IC50, pseudovirus neutralization [21] of 0.057 µg/mL and an IC50 (µg/mL) neutralization [22] of over 50 µg/mL. The neutralization IC50 [23] was over 50 µg/mL, the neutralization IC50 [24] was over 50 µg/mL and the IC50 (µg/mL) neutralization [25] was over 50 µg/mL. For the same substance, the IC50 (µg/mL) neutralization [26] was 0.015 µg/mL, the IC50, pseudovirus neutralization [27] was 0.778 µg/mL and the IC50 (ug/ml), neutralizing activity [30] was 0.0115 µg/mL.

With 5123_A06 (PGT-125) (antibody) the IC50 (µg/mL) neutralization [20] was 1.23 µg/mL, the IC50, pseudovirus neutralization [21] was 0.004 µg/mL and the IC50 (µg/mL) neutralization [22] was over 50 µg/mL. For the same substance, the neutralization IC50 [23] was over 50 µg/mL, the neutralization IC50 [24] was over 50 µg/mL and the IC50 (µg/mL) neutralization [25] was over 50 µg/mL. For the same substance, the IC50 (µg/mL) neutralization [26] was 2.36 µg/mL, the IC50, pseudovirus neutralization [27] was 0.007 µg/mL and the IC50 (ug/ml), neutralizing activity [30] was 0.0382 µg/mL. It also gave a neutralization IC50 [30] of 0.0382 µg/mL, a neutralization IC80 [30] of 0.144 µg/mL and a neutralization IC90 [30] of 0.339 µg/mL. For the same substance, the neutralization IC95 [30] was 0.892 µg/mL.
